Results as given in paper PMC11063326, “2-oxoglutarate-dependent dioxygenases and BAHD acyltransferases drive the structural diversification of orobanchol in Fabaceae plants” (Frontiers in Plant Science, 2024).

Substrate: CC1=C[C@H](O/C=C2/C(=O)O[C@@H]3[C@H]2[C@@H](O)[C@]24CCCC(C)(C)[C@]32O4)OC1=O
Test: product formation (fabacyl acetate) by LC-MS/MS, crude recombinant enzyme
Format: biochemical, Lathyrus oleraceus
Details: 200 μM acetyl-CoA, 50 mM citrate pH 6.0, 30°C
Source text: product formation (fabacyl acetate) by LC-MS/MS, crude recombinant enzyme on PsFAT (fabacol acetyltransferase, Psat7g079960)

B1: PsFAT (fabacol acetyltransferase, Psat7g079960) (Lathyrus oleraceus) (protein)
chain: MEMEIISREFIKPSSPTPPHLRNFPISFIDHITFRYYVPLLFFYNDTKVSDQKSKISHLKSSLSQILSIYYPFAGRFKDQRSIECNDQGVLFLVANITGIKLSTILENPDEKLFDHLFPDQLQWKLMEWNESILVVQINCFACGGIVISVCTCHKIIDATTAFNFVNDWSKLNREQESESKSTSASLLPYNLLYAGDTIFSLGNLPKFPEVDFAIDKTIVCKRFVFEASKIKLLKNLVNFNSHVVENPTRVEVITALIYKCVVSTLGLNFKTTSLQIAVNLRKRMIPPLSNKCVGNLVWILFVMNPELHDLVFRIRQGLSEFCEVYPKKFGGKEKDSSFICECLKQVTTRVSESDNNQSLIAYASWCKFPMYEADFGWGKPIWVTTSACPARNAVILMDTRDGDGIEVIVSMKKNDMVRFECDVELLQYASVNPSITS
notes: complete CDS from root cDNA, modified pCold III, E. coli BL21(DE3) with GroES/GroEL; crude E. coli extract
- Km: 0.287 ± 0.076 µM
- Vmax: 0.00745 µM/min
